Experiments:
tau (human 2N4R) [1] = target: tau (human 2N4R) (UniProt P10636); experiment: single-molecule TIRF dwell time inside envelopes; conditions: reference: E. coli SNAP-tau (non-phosphorylated); sites T181,S198,S202,S210,T231,S235,S237,S352,S396,S404,S422
[2] = target: tau (human 2N4R) dGAE, 297-391 (UniProt P10636); experiment: filament co-assembly, ultracentrifugation, SDS-PAGE
tau (human 2N4R) [3] = target: tau (human 2N4R) (UniProt P10636); experiment: Hill coefficient of microtubule binding curve; conditions: reference: E. coli tau (non-phosphorylated)
[4] = target: tubulin (taxol-stabilized microtubules); experiment: single-molecule TIRF on bare microtubules; conditions: reference: E. coli tau (non-phosphorylated)
[5] = sites T181,S198,S202,S210,T231,S235,S237,S352,S396,S404,S422
[6] = sites T181,S202,S210,T231,S235,S237,S241,S258,S262,T319,T373,T377,T403,S404

Sequence of tau (human 2N4R) (P10636 whole entry, looked up, stated change not applied): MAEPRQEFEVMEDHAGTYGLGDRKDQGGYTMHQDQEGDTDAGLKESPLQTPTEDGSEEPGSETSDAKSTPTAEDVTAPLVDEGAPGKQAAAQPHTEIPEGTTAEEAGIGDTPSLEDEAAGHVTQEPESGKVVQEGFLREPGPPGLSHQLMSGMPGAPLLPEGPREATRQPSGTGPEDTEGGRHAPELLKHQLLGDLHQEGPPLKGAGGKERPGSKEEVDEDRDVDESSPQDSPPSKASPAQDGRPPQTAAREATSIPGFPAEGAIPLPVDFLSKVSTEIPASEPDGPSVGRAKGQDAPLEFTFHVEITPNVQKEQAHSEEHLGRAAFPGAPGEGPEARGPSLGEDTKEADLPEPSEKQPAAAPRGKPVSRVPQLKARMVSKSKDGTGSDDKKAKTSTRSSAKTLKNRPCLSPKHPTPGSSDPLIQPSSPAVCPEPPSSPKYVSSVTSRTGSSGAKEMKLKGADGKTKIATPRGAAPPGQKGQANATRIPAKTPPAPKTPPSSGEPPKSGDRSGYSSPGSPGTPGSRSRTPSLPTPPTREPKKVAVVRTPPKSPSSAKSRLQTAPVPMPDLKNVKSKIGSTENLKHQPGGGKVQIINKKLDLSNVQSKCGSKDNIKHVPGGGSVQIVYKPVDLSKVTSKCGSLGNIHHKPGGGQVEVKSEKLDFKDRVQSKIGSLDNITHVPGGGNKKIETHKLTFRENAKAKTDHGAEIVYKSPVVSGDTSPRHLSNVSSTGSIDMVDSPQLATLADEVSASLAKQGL

tau (human 2N4R) (from UniProt P10636-8) Sf9 SNAP-tau
other: dwell time (tau (human 2N4R) [1]): weaker; reference ~ 6.06

tau (human 2N4R) (from UniProt P10636-8) Sf9 tau
other: t1/2 of co-pelleting ([2]; reference: E. coli tau (non-phosphorylated), sites T181,S198,S202,S210,T231,S235,S237,S352,S396,S404,S422): stronger; reference ~ 14
other: t1/2 of co-pelleting ([2]; reference: HEK tau, sites S210,S422): stronger; reference ~ 12
other: Hill coefficient (tau (human 2N4R) [3]; [5]): stronger; reference 1.24
other: dwell time [4, 5]: weaker; reference ~ 4.3

tau (human 2N4R) (from UniProt P10636-8) HEK tau
other: t1/2 of co-pelleting ([2]; reference: E. coli tau (non-phosphorylated), sites T181,S202,S210,T231,S235,S237,S241,S258,S262,T319,T373,T377,T403,S404): same; reference ~ 14
other: Hill coefficient (tau (human 2N4R) [3]; [6]): same; reference 1.24
other: dwell time [4, 6]: weaker; reference ~ 4.3

— paper PMC12036459
